Where “and” joins values, the source holds several entries; their conditions need not be identical. Identical values can stand only once.
Target: the molecule itself
Assay: SEC; Superose 6 Increase 10/300 GL, 50 mM HEPES-NaOH pH 7.5, 150 mM NaCl, 5 mM DTT, 10% glycerol, 0.05% DDM, 0.01% CHS, 4 °C; more concentrated injected sample (about 300 uL); sizes by comparison with five standard proteins; monomer to tetramer

B1: full-length human particulate guanylyl cyclase A receptor (pGC-A) (receptor, UniProt P16066 33-1061, looked up)
chain: GNLTVAVVLPLANTSYPWSWARVGPAVELALAQVKARPDLLPGWTVRTVLGSSENALGVCSDTAAPLAAVDLKWEHNPAVFLGPGCVYAAAPVGRFTAHWRVPLLTAGAPALGFGVKDEYALTTRAGPSYAKLGDFVAALHRRLGWERQALMLYAYRPGDEEHCFFLVEGLFMRVRDRLNITVDHLEFAEDDLSHYTRLLRTMPRKGRVIYICSSPDAFRTLMLLALEAGLCGEDYVFFHLDIFGQSLQGGQGPAPRRPWERGDGQDVSARQAFQAAKIITYKDPDNPEYLEFLKQLKHLAYEQFNFTMEDGLVNTIPASFHDGLLLYIQAVTETLAHGGTVTDGENITQRMWNRSFQGVTGYLKIDSSGDRETDFSLWDMDPENGAFRVVLNYNGTSQELVAVSGRKLNWPLGYPPPDIPKCGFDNEDPACNQDHLSTLEVLALVGSLSLLGILIVSFFIYRKMQLEKELASELWRVRWEDVEPSSLERHLRSAGSRLTLSGRGSNYGSLLTTEGQFQVFAKTAYYKGNLVAVKRVNRKRIELTRKVLFELKHMRDVQNEHLTRFVGACTDPPNICILTEYCPRGSLQDILENESITLDWMFRYSLTNDIVKGMLFLHNGAICSHGNLKSSNCVVDGRFVLKITDYGLESFRDLDPEQGHTVYAKKLWTAPELLRMASPPVRGSQAGDVYSFGIILQEIALRSGVFHVEGLDLSPKEIIERVTRGEQPPFRPSLALQSHLEELGLLMQRCWAEDPQERPPFQQIRLTLRKFNRENSSNILDNLLSRMEQYANNLEELVEERTQAYLEEKRKAEALLYQILPHSVAEQLKRGETVQAEAFDSVTIYFSDIVGFTALSAESTPMQVVTLLNDLYTCFDAVIDNFDVYKVETIGDAYMVVSGLPVRNGRLHACEVARMALALLDAVRSFRIRHRPQEQLRLRIGIHTGPVCAGVVGLKMPRYCLFGDTVNTASRMESNGEALKIHLSSETKAVLEEFGGFELELRGDVEMKGKGKVRTYWLLGERGSSTRG
notes: transmembrane domain at residues 474-495; no TEV cleavage step is described; Found as monomer and as tetramer, depending on protein concentration; also called Particulate Guanylyl Cyclase Receptor A; natriuretic peptide receptor A; source: also on whole transfected Sf9 cells
With B1 the “stoichiometry N” value was 4 and 2.

Source: publication PMC9276669, “Purification, characterization, and preliminary serial crystallography diffraction advances structure determination of full-length human particulate guanylyl cyclase A receptor” (Scientific Reports, 2022)
